Reference: article PMC10495264 (Nature Cell Biology, 2023)
Like-named read-outs stand apart in the source and are kept apart here.

Experiments:
TORC1 [1] = molecular target: T1, TORC1 (Saccharomyces cerevisiae, UniProt P35169); assay: MST binding affinity assays with fluorescent TORC1 (GFP–Tor1); settings: for Kd: purified yeast proteins, GFP–Tor1-containing TORC1 7.5 nM, 30 °C, mean ± s.d., n = 3, read-out: Kd (binding to TORC1, MST); for Fraction bound transformed (MST, TORC1 target): Fig. 6d,e
T1 construct: made in house; host or cells: S. cerevisiae strain NIC005 ([RL170-2c] LEU2:GFP-TOR1)
T1 sequence (P35169 whole entry): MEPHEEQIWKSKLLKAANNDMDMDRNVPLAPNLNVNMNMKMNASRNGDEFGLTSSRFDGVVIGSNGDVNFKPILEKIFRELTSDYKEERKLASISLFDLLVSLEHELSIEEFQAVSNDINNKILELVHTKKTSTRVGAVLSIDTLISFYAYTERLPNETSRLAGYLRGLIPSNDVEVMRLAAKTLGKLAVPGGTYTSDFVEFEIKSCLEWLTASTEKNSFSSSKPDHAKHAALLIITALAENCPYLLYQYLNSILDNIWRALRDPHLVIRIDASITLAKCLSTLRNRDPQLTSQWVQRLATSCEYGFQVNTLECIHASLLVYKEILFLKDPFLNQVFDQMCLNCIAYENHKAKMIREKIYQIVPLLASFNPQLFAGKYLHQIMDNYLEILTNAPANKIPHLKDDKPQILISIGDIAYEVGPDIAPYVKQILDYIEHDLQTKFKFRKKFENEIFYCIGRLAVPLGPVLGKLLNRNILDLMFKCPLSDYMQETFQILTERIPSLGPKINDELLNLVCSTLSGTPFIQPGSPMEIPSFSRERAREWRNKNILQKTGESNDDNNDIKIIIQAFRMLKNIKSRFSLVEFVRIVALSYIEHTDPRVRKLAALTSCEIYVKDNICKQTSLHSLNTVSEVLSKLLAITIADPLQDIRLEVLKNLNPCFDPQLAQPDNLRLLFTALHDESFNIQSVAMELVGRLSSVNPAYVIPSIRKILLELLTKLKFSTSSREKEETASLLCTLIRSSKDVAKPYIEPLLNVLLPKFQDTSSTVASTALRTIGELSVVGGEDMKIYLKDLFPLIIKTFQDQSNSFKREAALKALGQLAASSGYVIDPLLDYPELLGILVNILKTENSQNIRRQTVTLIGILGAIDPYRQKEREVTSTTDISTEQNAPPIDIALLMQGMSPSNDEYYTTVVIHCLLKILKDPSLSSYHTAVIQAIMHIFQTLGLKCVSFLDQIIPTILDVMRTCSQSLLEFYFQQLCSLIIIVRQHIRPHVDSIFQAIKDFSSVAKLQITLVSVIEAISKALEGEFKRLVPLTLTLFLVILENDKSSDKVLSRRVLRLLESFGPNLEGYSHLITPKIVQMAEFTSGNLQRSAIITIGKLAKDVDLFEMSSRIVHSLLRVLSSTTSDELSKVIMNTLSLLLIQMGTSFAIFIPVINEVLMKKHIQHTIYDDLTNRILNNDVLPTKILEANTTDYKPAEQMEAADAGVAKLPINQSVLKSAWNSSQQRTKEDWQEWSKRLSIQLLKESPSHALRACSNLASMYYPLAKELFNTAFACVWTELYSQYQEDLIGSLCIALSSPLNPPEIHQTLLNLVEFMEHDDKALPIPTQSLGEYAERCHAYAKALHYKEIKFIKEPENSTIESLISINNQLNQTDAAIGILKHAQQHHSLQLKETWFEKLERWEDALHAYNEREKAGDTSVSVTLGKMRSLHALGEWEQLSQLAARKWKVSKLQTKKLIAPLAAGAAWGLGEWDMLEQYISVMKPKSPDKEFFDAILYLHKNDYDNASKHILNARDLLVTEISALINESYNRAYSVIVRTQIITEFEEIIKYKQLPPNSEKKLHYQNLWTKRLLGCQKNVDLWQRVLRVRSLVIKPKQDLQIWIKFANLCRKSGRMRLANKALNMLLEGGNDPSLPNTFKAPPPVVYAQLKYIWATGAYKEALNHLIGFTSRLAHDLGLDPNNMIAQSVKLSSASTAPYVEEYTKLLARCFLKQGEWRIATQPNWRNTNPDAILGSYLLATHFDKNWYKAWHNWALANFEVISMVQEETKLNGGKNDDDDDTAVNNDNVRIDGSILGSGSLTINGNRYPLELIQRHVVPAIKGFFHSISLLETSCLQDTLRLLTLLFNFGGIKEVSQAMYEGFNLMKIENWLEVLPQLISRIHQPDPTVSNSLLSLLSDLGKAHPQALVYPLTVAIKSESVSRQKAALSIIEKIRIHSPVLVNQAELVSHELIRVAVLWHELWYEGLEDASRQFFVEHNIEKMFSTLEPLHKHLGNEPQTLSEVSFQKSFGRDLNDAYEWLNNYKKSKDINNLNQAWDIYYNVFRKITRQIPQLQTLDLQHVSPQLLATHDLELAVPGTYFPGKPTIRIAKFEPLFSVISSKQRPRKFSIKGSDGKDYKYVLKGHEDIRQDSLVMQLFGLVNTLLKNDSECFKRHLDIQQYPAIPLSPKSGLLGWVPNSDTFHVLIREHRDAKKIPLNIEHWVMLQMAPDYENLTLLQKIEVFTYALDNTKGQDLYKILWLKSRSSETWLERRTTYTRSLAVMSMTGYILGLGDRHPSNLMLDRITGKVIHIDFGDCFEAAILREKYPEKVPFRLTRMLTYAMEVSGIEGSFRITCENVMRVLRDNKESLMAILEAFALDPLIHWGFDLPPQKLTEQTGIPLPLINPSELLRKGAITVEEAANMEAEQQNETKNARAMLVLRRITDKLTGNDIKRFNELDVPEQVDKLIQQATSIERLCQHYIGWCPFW
T1 sequence (Q08921 whole entry partner): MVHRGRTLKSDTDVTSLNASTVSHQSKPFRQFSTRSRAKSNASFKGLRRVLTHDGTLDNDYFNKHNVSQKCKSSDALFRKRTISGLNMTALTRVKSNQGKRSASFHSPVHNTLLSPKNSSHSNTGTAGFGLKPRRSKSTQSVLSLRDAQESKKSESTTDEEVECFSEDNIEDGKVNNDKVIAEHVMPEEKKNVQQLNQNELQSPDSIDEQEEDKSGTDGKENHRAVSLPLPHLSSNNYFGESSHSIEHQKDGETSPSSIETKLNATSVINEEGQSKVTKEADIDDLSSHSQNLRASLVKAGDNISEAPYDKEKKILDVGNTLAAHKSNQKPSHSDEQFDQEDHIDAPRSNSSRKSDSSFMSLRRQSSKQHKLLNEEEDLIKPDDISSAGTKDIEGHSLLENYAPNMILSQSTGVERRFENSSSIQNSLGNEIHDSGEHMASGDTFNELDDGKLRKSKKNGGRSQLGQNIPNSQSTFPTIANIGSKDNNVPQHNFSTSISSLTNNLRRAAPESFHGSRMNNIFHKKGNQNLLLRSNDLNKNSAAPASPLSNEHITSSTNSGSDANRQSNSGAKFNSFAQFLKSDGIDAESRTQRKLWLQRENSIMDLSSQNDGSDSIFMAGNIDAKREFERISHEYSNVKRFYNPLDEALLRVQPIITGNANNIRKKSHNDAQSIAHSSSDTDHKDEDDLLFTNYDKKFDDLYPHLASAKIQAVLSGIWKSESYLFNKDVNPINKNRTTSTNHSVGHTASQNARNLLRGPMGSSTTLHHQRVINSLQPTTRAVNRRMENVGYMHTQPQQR
T1 sequence (P38873 whole entry partner): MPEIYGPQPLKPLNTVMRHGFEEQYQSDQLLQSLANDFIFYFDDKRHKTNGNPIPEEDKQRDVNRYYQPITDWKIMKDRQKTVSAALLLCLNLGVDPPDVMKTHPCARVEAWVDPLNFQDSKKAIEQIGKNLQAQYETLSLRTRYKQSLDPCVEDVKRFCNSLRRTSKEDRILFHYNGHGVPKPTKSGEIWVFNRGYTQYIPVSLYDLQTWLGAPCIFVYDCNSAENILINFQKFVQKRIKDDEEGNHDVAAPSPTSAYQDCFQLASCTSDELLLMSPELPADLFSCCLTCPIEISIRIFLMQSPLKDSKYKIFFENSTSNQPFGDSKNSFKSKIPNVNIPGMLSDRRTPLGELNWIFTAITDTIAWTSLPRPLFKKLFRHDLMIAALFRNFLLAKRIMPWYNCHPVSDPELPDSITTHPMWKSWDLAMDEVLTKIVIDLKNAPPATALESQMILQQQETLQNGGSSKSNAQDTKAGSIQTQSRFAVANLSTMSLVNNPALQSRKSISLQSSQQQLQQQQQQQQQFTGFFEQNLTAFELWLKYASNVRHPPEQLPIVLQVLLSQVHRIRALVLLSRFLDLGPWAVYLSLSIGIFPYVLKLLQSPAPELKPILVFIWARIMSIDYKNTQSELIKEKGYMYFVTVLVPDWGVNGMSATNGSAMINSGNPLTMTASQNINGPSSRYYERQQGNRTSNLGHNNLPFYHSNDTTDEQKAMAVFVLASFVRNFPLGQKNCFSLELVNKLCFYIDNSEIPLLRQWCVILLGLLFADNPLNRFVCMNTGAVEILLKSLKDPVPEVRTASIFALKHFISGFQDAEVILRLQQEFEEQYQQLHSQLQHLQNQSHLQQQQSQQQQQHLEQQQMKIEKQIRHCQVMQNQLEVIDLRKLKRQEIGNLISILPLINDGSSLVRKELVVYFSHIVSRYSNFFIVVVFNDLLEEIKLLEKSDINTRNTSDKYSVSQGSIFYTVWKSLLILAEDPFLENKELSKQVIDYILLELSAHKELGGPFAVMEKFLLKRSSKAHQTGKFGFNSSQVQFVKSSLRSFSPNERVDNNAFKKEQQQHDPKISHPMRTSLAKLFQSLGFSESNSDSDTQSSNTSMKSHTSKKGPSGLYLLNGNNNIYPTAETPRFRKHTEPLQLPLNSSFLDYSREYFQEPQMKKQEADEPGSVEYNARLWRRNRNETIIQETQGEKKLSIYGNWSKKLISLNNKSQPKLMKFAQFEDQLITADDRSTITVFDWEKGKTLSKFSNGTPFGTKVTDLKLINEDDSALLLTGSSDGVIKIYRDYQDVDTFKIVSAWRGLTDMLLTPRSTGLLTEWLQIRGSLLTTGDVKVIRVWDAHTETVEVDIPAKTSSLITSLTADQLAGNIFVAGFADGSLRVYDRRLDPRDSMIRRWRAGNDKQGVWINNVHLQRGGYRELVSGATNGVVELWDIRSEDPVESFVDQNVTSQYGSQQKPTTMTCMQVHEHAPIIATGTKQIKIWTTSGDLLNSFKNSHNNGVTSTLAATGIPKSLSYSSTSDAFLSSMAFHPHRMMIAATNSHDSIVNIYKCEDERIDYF
T1 sequence (P41318 whole entry partner): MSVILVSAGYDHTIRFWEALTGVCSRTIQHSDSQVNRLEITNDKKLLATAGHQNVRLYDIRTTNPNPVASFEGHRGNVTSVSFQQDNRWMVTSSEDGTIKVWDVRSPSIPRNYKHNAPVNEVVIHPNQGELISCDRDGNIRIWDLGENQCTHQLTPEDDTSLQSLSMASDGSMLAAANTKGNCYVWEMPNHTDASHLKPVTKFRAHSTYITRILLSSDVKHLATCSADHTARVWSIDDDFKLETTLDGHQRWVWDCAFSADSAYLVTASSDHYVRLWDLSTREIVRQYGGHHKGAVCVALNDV
Experimental: The MST experiments were performed using a Monolith NT.115 (Nanotemper Technologies). Purification of TORC1 containing the N-terminally GFP-tagged Tor1 subunit was carried out as described previously. For the protein–protein interaction experiments, GFP–Tor1-containing TORC1 (7.5 nM) was mixed with a series of twofold dilutions (a total of 16 samples) of Acc1 (highest concentration, 80 nM) or Fas1 (highest concentration, 20 nM) purified from yeast through TAP-tag immuno-enrichment with rabbit IgG-coated magnetic beads and subsequent TEV cleavage in elution buffer (50 mM HEPES NaOH pH 7.5 and 150 mM NaCl) for 1 h at 18 °C. The samples were loaded into Monolith NT.115 capillaries and MST measurements were performed using 80% laser power and medium MST power setting at 30 °C. For the small molecule–protein interaction experiments, GFP–Tor1-containing TORC1 (7.5 nM) was mixed with a series of twofold dilutions (a total of 16 samples) of Mal-CoA (M4263, Sigma-Aldrich; highest concentration, 5 mM) dissolved in 50 mM HEPES pH 7.5. The samples were loaded into Monolith NT.115 capillaries and MST measurements were performed using 80% laser power and medium MST power setting at 30 °C. The experiments were performed in triplicate and data were fitted using the Kd model of the MO.Affinity Analysis software (Nanotemper Technologies). The signal-to-noise ratio represents the response amplitude divided by the noise of the measurement. The Kd value was obtained by plotting the bound fraction against the log-transformed ligand concentration.

TORC1 [2] = molecular target: T1, TORC1; assay: as above
TORC1 [3] = molecular target: T1, TORC1; assay: Yeast TORC1 kinase activity assays (radioactive IVK, Lst4^Loop substrate); type: biochemical; settings: for In vitro TORC1 kinase assay - CoA compounds, relative activity, Mean: Fig. 8b; for IC50: Lst4^Loop phosphorylation, detection limit 6 mM, n = 3, read-out: IC50 (yeast TORC1 IVK)
Experimental: TORC1 was purified from yeast cells and radioactive IVK assays were performed essentially as previously described. Briefly, kinase reactions (total volume, 30 μl) were performed with 400 ng of purified His6–Lst4^Loop protein and 60 ng TORC1 in kinase buffer (50 mM HEPES NaOH pH 7.5 and 150 mM NaCl). […] All reactions were carried out at 30 °C for 10 min and stopped with the addition of 3×sample buffer (50 mM Tris–HCl pH 6.8, 5% SDS, 0.05% bromophenol blue, 630 mM DTT and 30% glycerol) and heating at 65 °C for 10 min. Proteins were separated by SDS–PAGE and stained in-gel with SYPRO Ruby (S4942, Sigma-Aldrich) as the loading control. Substrate phosphorylation was analysed by autoradiography using a Typhoon FLA 9500 phosphorimager (GE Healthcare) and the raw density of the signals was quantified using the gel analysis tool of ImageJ.

mTORC1 = molecular target: T2, mTORC1 (Homo sapiens, UniProt P42345); assay: Mammalian mTORC1 kinase activity assays (IVK, 4E-BP1 substrate); type: biochemical; settings: for In vitro mTORC1 assay, p-4E-BP1(T37/46)/4E-BP1, Mean: Fig. 8f, relative to 0 mM
T2 construct: endogenous mTORC1 complexes were purified from HEK293FT cells; endogenous in cells; host or cells: HEK293FT (immunoprecipitation of endogenous mTOR); the 4E-BP1 substrate was made in E. coli BL21 RP
Experimental: Following the last wash step with CHAPS IP wash buffer, the beads were washed once with kinase wash buffer (25 mM HEPES pH 7.4 and 20 mM KCl) and excess liquid was removed using a Hamilton syringe—the final bead volume was approximately 10 μl. Kinase reactions were prepared by adding 10 μl of 3×kinase assay buffer (75 mM HEPES KOH pH 7.4, 60 mM KCl and 30 mM MgCl2) to the beads. […] The reactions were incubated at 30 °C for 30 min, and stopped by the addition of one volume of 2×SDS loading buffer and boiling (5 min, 95 °C). […] Signals were quantified using the gel analysis tool of ImageJ and are shown as the phospho-4E-BP1^T37/46/4E-BP1 ratio.

[4] = molecular target: TORC1 containing the N-terminally GFP-tagged Tor1 subunit (Saccharomyces cerevisiae) (UniProt P35169); assay: MST; GFP–Tor1-containing TORC1 (7.5 nM) as fluorescent target, 16 twofold dilutions of Acc1 (highest 80 nM) or Fas1 (highest 20 nM); 50 mM HEPES NaOH pH 7.5, 150 mM NaCl; 30 °C; Monolith NT.115
yeast cells = assay: Drop spot growth assays on rapamycin and/or cerulenin plates; type: cell-based, Saccharomyces cerevisiae; settings: low / sublethal doses combined
Experimental: Yeast cells (Saccharomyces cerevisiae) were cultured in liquid SC medium (1.7 g l^−1 yeast nitrogen base (cat. no. 1545, CONDA), 5 g l^−1 ammonium sulfate (cat. no. 4808211, MP Biomedicals), 20 g l^−1 glucose (cat. no. 1422, AppliChem), 2 g l^−1 amino acid dropout –His (D9520, US Biological) and 35 mg l^−1 histidine (A1341, AppliChem) at 30 °C to the exponential growth phase, unless otherwise stated in the figure legends. All yeast strains used in this study are listed in Supplementary Table 1.

[5] = titrated protein 4.88281e-9 M, Fig. 6d,e
[6] = titrated protein 3.90625e-8 M, Fig. 6d,e
[7] = titrated protein 1.5625e-7 M, Fig. 6d,e
[8] = compound 0.073 mM, normalised to this concentration

Fas1: yeast FA synthase subunit purified from yeast through TAP-tag immuno-enrichment
Kd (TORC1 [1]): 0.0237 ± 0.0154 µM | Fraction bound transformed (MST, TORC1 target) (TORC1 [1]; titrated protein 2.44141e-9 M): 0.1633 | Fraction bound transformed (MST, TORC1 target) (TORC1 [1]; titrated protein 9.76563e-9 M): 0.4832 | Fraction bound transformed (MST, TORC1 target) (TORC1 [1]; titrated protein 1.95313e-8 M): 0.1917 | Fraction bound transformed (MST, TORC1 target) (TORC1 [1]; titrated protein 7.8125e-8 M): 0.6873 | Fraction bound transformed (MST, TORC1 target) (TORC1 [1]; titrated protein 3.125e-7 M): 0.978 | Fraction bound transformed (MST, TORC1 target) (TORC1 [1]; titrated protein 6.25e-7 M): 1.128 | Fraction bound transformed (MST, TORC1 target) (TORC1 [1]; titrated protein 1.25e-6 M): 1.25 | Fraction bound transformed (MST, TORC1 target) (TORC1 [1]; titrated protein 2.5e-6 M): 1.151 | Fraction bound transformed (MST, TORC1 target) (TORC1 [1]; titrated protein 5e-6 M): 0.8443 | Fraction bound transformed (MST, TORC1 target) (TORC1 [1]; titrated protein 1e-5 M): 0.9239 | Fraction bound transformed (MST, TORC1 target) (TORC1 [1]; titrated protein 2e-5 M): 0.8697 | Fraction bound transformed (MST, TORC1 target) (TORC1 [2]; [5]): 0.2698 | Fraction bound transformed (MST, TORC1 target) (TORC1 [2]; [6]): 0.7564 | Fraction bound transformed (MST, TORC1 target) (TORC1 [2]; [7]): 0.5063 | Fraction bound transformed (MST, TORC1 target) (TORC1 [2]; titrated protein 1.2207E-09 M, Fig. 6e): -0.03697 | Fraction bound transformed (MST, TORC1 target) (TORC1 [2]; titrated protein 6.1035E-10 M, Fig. 6e): -0.1692

CC(=O)SCCNC(=O)CCNC(=O)[C@H](O)C(C)(C)COP(=O)(O)OP(=O)(O)OC[C@H]1O[C@@H](n2cnc3c(N)ncnc32)[C@H](O)[C@@H]1OP(=O)(O)O [acetyl-CoA]
In vitro TORC1 kinase assay - CoA compounds, relative activity, Mean (TORC1 [3]; [8]): 1 | In vitro TORC1 kinase assay - CoA compounds, relative activity, Mean (TORC1 [3]; compound 0.22 mM): 0.9698 | In vitro TORC1 kinase assay - CoA compounds, relative activity, Mean (TORC1 [3]; compound 2 mM): 0.7319 | In vitro TORC1 kinase assay - CoA compounds, relative activity, Mean (TORC1 [3]; compound 6 mM): 0.5296 | IC50 (TORC1 [3]): 2880 µM | In vitro mTORC1 assay, p-4E-BP1(T37/46)/4E-BP1, Mean (mTORC1; compound 0.01 mM): 0.9483 | In vitro mTORC1 assay, p-4E-BP1(T37/46)/4E-BP1, Mean (mTORC1; compound 0.05 mM): 0.8033 | In vitro mTORC1 assay, p-4E-BP1(T37/46)/4E-BP1, Mean (mTORC1; compound 0.1 mM): 0.8597 | In vitro mTORC1 assay, p-4E-BP1(T37/46)/4E-BP1, Mean (mTORC1; compound 0.5 mM): 0.644 | In vitro mTORC1 assay, p-4E-BP1(T37/46)/4E-BP1, Mean (mTORC1; compound 1 mM): 0.6848 | In vitro mTORC1 assay, p-4E-BP1(T37/46)/4E-BP1, Mean (mTORC1; compound 2.5 mM): 0.4704 | In vitro mTORC1 assay, p-4E-BP1(T37/46)/4E-BP1, Mean (mTORC1; compound 5 mM): 0.3906 | IC50 (mTORC1; mTORC1 immunoprecipitated from HEK293FT, recombinant 4E-BP1, 500 μM ATP): 1030 µM

CC(C)(COP(=O)(O)OP(=O)(O)OC[C@H]1O[C@@H](n2cnc3c(N)ncnc32)[C@H](O)[C@@H]1OP(=O)(O)O)[C@@H](O)C(=O)NCCC(=O)NCCS [CoA, coenzyme A]
In vitro TORC1 kinase assay - CoA compounds, relative activity, Mean (TORC1 [3]; [8]): 1 | In vitro TORC1 kinase assay - CoA compounds, relative activity, Mean (TORC1 [3]; compound 0.22 mM): 1.005 | In vitro TORC1 kinase assay - CoA compounds, relative activity, Mean (TORC1 [3]; compound 2 mM): 0.9479 | In vitro TORC1 kinase assay - CoA compounds, relative activity, Mean (TORC1 [3]; compound 6 mM): 0.6805 | IC50 (TORC1 [3]): > 6000 µM | IC50 (mTORC1): > 5000 µM | In vitro mTORC1 assay, p-4E-BP1(T37/46)/4E-BP1, Mean (mTORC1; compound 0.01 mM): 0.8503 | In vitro mTORC1 assay, p-4E-BP1(T37/46)/4E-BP1, Mean (mTORC1; compound 0.05 mM): 0.8507 | In vitro mTORC1 assay, p-4E-BP1(T37/46)/4E-BP1, Mean (mTORC1; compound 0.1 mM): 1.093 | In vitro mTORC1 assay, p-4E-BP1(T37/46)/4E-BP1, Mean (mTORC1; compound 0.5 mM): 0.8643 | In vitro mTORC1 assay, p-4E-BP1(T37/46)/4E-BP1, Mean (mTORC1; compound 1 mM): 1.061 | In vitro mTORC1 assay, p-4E-BP1(T37/46)/4E-BP1, Mean (mTORC1; compound 2.5 mM): 0.926 | In vitro mTORC1 assay, p-4E-BP1(T37/46)/4E-BP1, Mean (mTORC1; compound 5 mM): 0.889

Fas1 purified from yeast (from UniProt P07149 1-2051) (enzyme)
Kd [4]: 0.0237 µM

Acc1 purified from yeast (from UniProt Q00955 1-2233) (enzyme)
Kd [4]: 0.0491 µM

CO[C@H]1C[C@@H]2CC[C@@H](C)[C@@](O)(O2)C(=O)C(=O)N2CCCC[C@H]2C(=O)O[C@H]([C@H](C)C[C@@H]2CC[C@@H](O)[C@H](OC)C2)CC(=O)[C@H](C)/C=C(\C)[C@@H](O)[C@@H](OC)C(=O)[C@H](C)C[C@H](C)/C=C/C=C/C=C/1C [rapamycin]
combined effect of rapamycin and cerulenin on yeast growth (yeast cells): additive effect

Acc1: yeast acetyl-CoA carboxylase purified from yeast through TAP-tag immuno-enrichment
Kd (TORC1 [1]): 0.0491 ± 0.0283 µM | Fraction bound transformed (MST, TORC1 target) (TORC1 [1]; titrated protein 2.44141e-9 M): 0.1107 | Fraction bound transformed (MST, TORC1 target) (TORC1 [1]; titrated protein 9.76563e-9 M): -0.03249 | Fraction bound transformed (MST, TORC1 target) (TORC1 [1]; titrated protein 1.95313e-8 M): 0.3896 | Fraction bound transformed (MST, TORC1 target) (TORC1 [1]; titrated protein 7.8125e-8 M): 0.8094 | Fraction bound transformed (MST, TORC1 target) (TORC1 [1]; titrated protein 3.125e-7 M): 0.5572 | Fraction bound transformed (MST, TORC1 target) (TORC1 [1]; titrated protein 6.25e-7 M): 0.7617 | Fraction bound transformed (MST, TORC1 target) (TORC1 [1]; titrated protein 1.25e-6 M): 0.8055 | Fraction bound transformed (MST, TORC1 target) (TORC1 [1]; titrated protein 2.5e-6 M): 0.9274 | Fraction bound transformed (MST, TORC1 target) (TORC1 [1]; titrated protein 5e-6 M): 1.054 | Fraction bound transformed (MST, TORC1 target) (TORC1 [1]; titrated protein 1e-5 M): 1.011 | Fraction bound transformed (MST, TORC1 target) (TORC1 [1]; titrated protein 2e-5 M): 0.9376 | Fraction bound transformed (MST, TORC1 target) (TORC1 [1]; titrated protein 4e-5 M): 1.262 | Fraction bound transformed (MST, TORC1 target) (TORC1 [1]; titrated protein 8e-5 M): 1.2067 | Fraction bound transformed (MST, TORC1 target) (TORC1 [2]; [5]): 0.03811 | Fraction bound transformed (MST, TORC1 target) (TORC1 [2]; [6]): 0.4481 | Fraction bound transformed (MST, TORC1 target) (TORC1 [2]; [7]): 0.735
